Data from article doi:10.1101/2022.08.23.504973 (bioRxiv, 2022).

Molecular target: KEAP1 (Kelch-like ECH-associated protein 1), recombinant (UniProt Q14145 1-624)
Experiment: SPR

KEAP1 (Kelch-like ECH-associated protein 1), recombinant, sequence (Q14145 whole entry): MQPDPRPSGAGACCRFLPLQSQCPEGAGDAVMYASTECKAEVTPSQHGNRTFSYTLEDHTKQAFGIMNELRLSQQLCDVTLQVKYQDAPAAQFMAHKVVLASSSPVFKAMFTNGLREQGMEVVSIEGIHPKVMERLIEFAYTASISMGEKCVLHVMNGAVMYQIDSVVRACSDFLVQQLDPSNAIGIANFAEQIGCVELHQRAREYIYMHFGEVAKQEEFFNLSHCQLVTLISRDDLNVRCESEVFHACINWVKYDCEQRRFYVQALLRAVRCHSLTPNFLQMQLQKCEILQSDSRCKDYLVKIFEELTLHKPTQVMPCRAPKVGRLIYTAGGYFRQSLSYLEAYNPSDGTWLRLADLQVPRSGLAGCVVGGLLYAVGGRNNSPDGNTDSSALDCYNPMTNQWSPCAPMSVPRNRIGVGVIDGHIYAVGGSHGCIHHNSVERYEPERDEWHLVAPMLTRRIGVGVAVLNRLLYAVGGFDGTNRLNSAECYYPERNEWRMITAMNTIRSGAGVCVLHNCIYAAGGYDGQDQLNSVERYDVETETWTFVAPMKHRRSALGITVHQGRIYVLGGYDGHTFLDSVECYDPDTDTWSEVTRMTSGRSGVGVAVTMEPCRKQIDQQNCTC

B1: BDNF mature recombinant (brain-derived neurotrophic factor) (ligand, human, UniProt P23560 129-247, looked up)
chain: HSDPARRGELSVCDSISEWVTAADKKTAVDMSGGTVTVLEKVPVSKGQLKQYFYETKCNPMGYTKEGCRGIDKRHWNSQCRTTQSYVRALTMDSKKRIGWRFIRIDTSCVCTLTIKRGR
  Kd: 2.71 nM
  koff: 0.00225 s⁻¹
  kon: 828000 M⁻¹ s⁻¹
